From article PMC3315329

Assays:
[1] = target: 40S ribosomal subunits of asc1Δ cells (lacking ASC1) (S. cerevisiae (endogenous in yeast)) (UniProt P32905); test: cross-linking + co-sedimentation
[2] = target: 40S ribosomal subunits (wild type) (S. cerevisiae (endogenous in yeast)) (UniProt P38011); test: cross-linking + co-sedimentation
Chain of UniProt P38011 (P38011 whole entry, looked up, tested part not stated): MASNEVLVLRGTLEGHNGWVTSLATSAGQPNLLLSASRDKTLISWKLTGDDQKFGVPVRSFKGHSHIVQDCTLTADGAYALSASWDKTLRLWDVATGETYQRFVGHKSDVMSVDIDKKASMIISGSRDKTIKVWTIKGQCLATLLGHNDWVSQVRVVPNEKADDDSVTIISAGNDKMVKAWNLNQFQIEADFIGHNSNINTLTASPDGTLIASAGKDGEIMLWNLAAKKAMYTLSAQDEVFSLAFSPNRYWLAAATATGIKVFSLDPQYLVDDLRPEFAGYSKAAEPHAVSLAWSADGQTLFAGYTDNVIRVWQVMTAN

Chain of UniProt P32905 (P32905 whole entry, looked up, stated change not applied, tested part not stated): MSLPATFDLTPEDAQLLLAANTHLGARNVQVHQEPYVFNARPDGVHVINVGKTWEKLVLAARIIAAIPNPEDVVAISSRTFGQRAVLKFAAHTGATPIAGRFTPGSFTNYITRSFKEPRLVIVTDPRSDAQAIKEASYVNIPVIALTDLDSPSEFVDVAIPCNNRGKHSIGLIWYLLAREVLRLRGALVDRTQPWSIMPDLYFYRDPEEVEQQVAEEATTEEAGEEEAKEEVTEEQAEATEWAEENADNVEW

Row | Substance | reduction of the 40S-associated amount relative to wt [1] [%] | reduction of the 40S-bound amount in nip1-Δ60 cells relative to wt [2] [%] | reduction of the eIF/40S ratio in nip1-743A752 cells relative to wt [2] [%]
1 | eIF2 (from UniProt P20459 1-304; P09064 1-285; P32481 1-527) (complex) | 50 | – | –
2 | eIF5 (from UniProt P38431 1-405) (natural protein) | 50 | 20 | 60
